In general, EC50 refers to the concentration needed to bring the measured effect to its halfway point. Higher therefore signals a need for much substance.

B1: Hu-14 (antibody, V domains shown)
VH: EVQLLESGGGLVQPGGSLRLSCAASGITFSSYAMSWVRQVPGKGLEWVSVISGSGGSTYYADSVKGRFTISRDNSKNTLYLQMNSLRAEDTAVYYCAKDRGYDILTTYYDYFYGMDVWGQPEFQHTGG
VL: DIQMTQSPSSLSASVGDRVIITCRASQGIRNDLGWYQQKPGKAPKRLIYAASSLQSGVPSRFSGSGSGTEFTLTISSLQPEDLASYYCLQHNSYPYTFGQGTKLEIK
B2: Hu-16 (antibody, V domains shown)
VH: EVQLLESGGGVVQPGGSLRLSCAASGLIFSSYAMSWVRQAPGKGLEWVSVIGGSGSNTFYADSVKGRFTISRDNSKNTLFLQMNSLRAEDTAVYYCAKDRGYDILTGYYNYYYGMDVWGQGITVTVSS
VL: B1 VL with I20T, L83F, S85T
B3: Hu-5 (antibody, V domains shown)
VH: QVQLVQSGAEVKKPGASVKVSCEASGYTFTSSYMHWVRQAPGQGLEWMGIINPSGGRTNYAQKFQGRVTMTRDTSTSTVYMELSSLRSEDTAVYYCARDHYDIFTTYYPRGMDVWGQGTTVTVSS
VL: B1 VL with I20T, L83F, A84T, S85T, Y94F, Y96F, K103E, K107R
B4: Ms5 (antibody, V domains shown)
VH: QVQLQQPGAELVKPGASVKLSCKASGYTFTRYLMHWVKQRPGQGLEWIGEINPSNGRTNYNEKFKSKAALTVDKSSSTAYMQLSSLTSEDSAVYYCARLAYGYGNAVDYWGQGTSVTVSS
VL: DIVMTQSPSSLSVSAGEKVTMSCKSSQSLLNSGNQKNYLAWYQQKPGQPPKLLIYGASTRESGVPDRFTGSGSGTDFTLTISSVQAEDLAVYYCQNDHSYPLTFGAGTKLELK
B5: Ms10 (antibody, V domains shown)
VH: EVQLQQSGPELEKPGASVKISCKASGYSFTGYKMNWVKQSNGKSLEWIGHIDPYYGGPRYNKKFMGKATLTVDRSSSTAYMQLKSLTSEDSAVYYCARLDYGNSFAYWGQGTLVTVSA
VL: B4 VL with L102F, A106G, L112I
B6: Ms6 (antibody, V domains shown)
VH: QVQLQQSGAELAKPGASVKMSCRASGYTFTSYLMHWIKQRPGQALEWIGYINPTTDYTEYNQKFKGKATLTADKSSSTAYMQLSSLTSEDSAVYYCGRLGYYKRNAMDHWGQGTSVTVSS
VL: B4 VL with S99F
B7: Ms12 (antibody, V domains shown)
VH: EIQLQQSGPELVKPGASVKVSCKASGYAFASYKMYWVKQSHGKSLEWIGYIDPYNGVTSYNQKFRGKATLTVDKSSSTAYMHLNSLTSEDSAVYYCARGAYYGNSFDYWGQGTTLTVSS
VL: DIVMTQSPSSLTVTAGEKVTMSCKSSQSLLNSGNQKNYLTWYQQQPGQPPKLLIYWASTRESGVPDRFTGSGSGTDFTLTISSVQAVDLAVYYCQSAYSFPYTFGGGTKLEVK
B8: Ms1 (antibody, V domains shown)
VH: EIQLQQSGPELVKPGASVKVSCKASGYAYTRYNMYWVKQSHGKSLEWIGYIDPYNGGTNYNQKFKGKATLTVDKSSSTAYMHLNSLTSEDSAVYYCARGGYYGNAMDYWGQGTSVTVSS
VL: DIVMTQSPSSLTVTAGEKVTMSCKSSQSLLNSGNQKNYLTWYQQKPGQPPKLLIYWASTRESGVPDRFTGSGSGTDFTLTISSVQAEDLSIYYCQSNYIYPFTFGAGTTLELQ
B9: Ms3 (antibody, V domains shown)
VH: EVMLVESGGGIVKPGGSLKLSCAASGFTLSSYTMSWVRQTPERRLEWVATIIIGGSYTYYPDSVKGRFTISRDNAKNTLYLQMSSLRSEDTAMYYCARQGYGNSFPYWGQGTLVTVSA
VL: B4 VL with S12T, S14T, A40T, G56W, H98Y, L102F, A106S, L112I
B10: Ms7 (antibody, V domains shown)
VH: EVKLVESGGDLVQPGGSLRLSCTTPGFTFSDFYMEWVRQPPGKRLEWIAASRNKANDYTTENSASVKGRFIVSRDTSQSILYLQMNALRAEDTAIYYCARDACPWDWFAYWGQGTLVTVSA
VL: B4 VL with S12T, S14T, A40T, G56W, H98Y, L102F, A106S, L112I
B11: Ms8 (antibody, V domains shown)
VH: B8 VH with G26D, Y29F
VL: B8 VL with K51Q
B12: Ms13 (antibody, V domains shown)
VH: EVQLQQSGPELVKPGASVKMSCKASGYTFTRYIMHWVKQKPGQGLEWIGYFNPYNDDSKTSEKFKGKATLTSDKSSSTAYMEINSLTSEDSAVYYCAKLRQERIAYWGQGTLVTVSA
VL: DIQMNQSPSSLSASLGDTITITCHASQNIDVWLSWYQQKPGNFPKLLIYKASNLHTGVPSRFSGSGSGTGFTLTISSLQPEDIATYYCQQGQSYPLTFGAGTKLELK
B13: Ms15 (antibody, V domains shown)
VH: EVQLQQSGPELVRPGASVKMSCRASGYTFTNYIIHWVKQKPGQGLEWIGYFNPYNDGTKYNEIFKDKATLTSDKSSSTAYMELRSLTSEDSAVYYCAKLRQERIAYWGQGTLVTVSA
VL: B12 VL with A25V, F43I
B14: NBL-014G (antibody, human IgG1, kappa, V domains shown)
VH: EVQLLESGGGLVQPGGSLRLSCAASGFTFSSFAMTWVRQAPGKGLEWVSSLSGSGRSTYYAASMKGRFTISRDNSKNTLYLQMNSLRAEDTAIYYCAKSLSYYHYYFDYWGQGTLVTVTS
VL: DIQLTQSPSFLSASVGDRVPITCRASQGISNFLAWYQQKPGKAPELLIHSASTLQSGVPSRFSGSGSGTEFTLTISNLQPQDFATYYCQQVNSYPLTFGGGTKVEIKR
modifications: low, or no IgG core fucose (non- or afucosylated)
B15: NBL-014 (antibody, human IgG1, kappa, V domains shown)
VH: B14 VH
VL: B14 VL

Substitutions are numbered along the chain they refer to.

The target in the first experiment is T1, human claudin 18 isoform 2 (claudin 18.2) (human).
T1 construct: Recombinant on transfected CHO cells (CHO-CLDN18.2) or endogenous on tumor cell lines PATU8988S, NUGC-4, KATOIII; the cell line is named under assay; also called CLDN18.2
In words: immunofluorescence imaging, CHO-CLDN18.2 cells, serial dilution. How it is done:
(§1) The specific cellular binding affinity of anti-Claudin18.2 antibodies was tested on CHO-CLDN18.2 (transfected CHO cell expressing recombinant human CLDN18.2) and CHO-CLDN18.1 (transfected CHO cell expressing recombinant human CLDN18.1) cells. The cells were plated in complete media containing F12 with 10% FBS, then incubated overnight at 37° C., anti-Claudin18.2 antibodies were serial diluted and added to the assay plates, incubated at 4° C. for 2 hours, followed by fixing cells and further staining the cells for 30 minutes with Alexa Fluor® 488 Goat Anti-Human IgG (H+L) secondary antibody, invitrogen Cat #A-11013 for detection. The binding was assessed by imaging the cells and quantifying the fluorescence intensity using a Biotek Cytation.
As to B1, the EC50 amounted to 19 nM.
The molecule B2 came in with an EC50 of 12 nM.
B3 had an EC50 of 4.5 nM.
Same read-out and setting: the result for B4 reads 1.7 nM; that for B5, 1.3 nM; that for B6, 1.2 nM.
On the same count and under the same terms, the result for B7 reads 2 nM; that for B8, 1.2 nM; that for B9, 1.8 nM.
On the same count and under the same terms, the same measure for B10: 1.4 nM.
With B11, the response was half-maximal at 1.5 nM (EC50).
Same read-out and setting: the result for B12 reads 1.2 nM.
Regarding B13, the EC50 turned out to be 1.8 nM.

The next experiment has as its target T1, human claudin 18 isoform 2 (claudin …). In words: cell-based or functional assay.
Regarding B14, the “ADCC EC50, CHO-claudin18.2 cells (human FcγRIIIa reporter bioluminescence)” value came to 0.02 nM; the “ADCC EC50, NUGC-4 cells (human FcγRIIIa reporter bioluminescence)” value was determined as 0.06 nM; the “ADCC EC50, PATU8988S cells (human FcγRIIIa reporter bioluminescence)” value came to 0.04 nM; the “CDC EC50, CHO-claudin18.2 cells (human serum, flow cytometry)” value stood at 0.3 nM. Besides, the “fold improvement of ADCC EC50 over parental NBL-014, CHO-claudin18.2 cells (human FcγRIIIa reporter bioluminescence)” value was 35 fold; the “fold upshift of maximum ADCC effect over parental NBL-014, NUGC-4 cells (human FcγRIIIa reporter bioluminescence)” value is about 3 fold; the “fold upshift of maximum ADCC effect over parental NBL-014, PATU8988S cells (human FcγRIIIa reporter bioluminescence)” value was about 33 fold.
Regarding B15, the “ADCC EC50, CHO-claudin18.2 cells (human FcγRIIIa reporter bioluminescence)” value came to 0.73 nM; the “ADCC EC50, NUGC-4 cells (human FcγRIIIa reporter bioluminescence)” value came out at 0.4 nM; the “ADCC EC50, PATU8988S cells (human FcγRIIIa reporter bioluminescence)” value was found to be 0.12 nM; the “CDC EC50, CHO-claudin18.2 cells (human serum, flow cytometry)” value stood at 0.22 nM. Further, the “fold improvement of CDC EC50 over PC1 (in-house iMAb36), CHO-claudin18.2 cells (human serum, flow cytometry)” value was about 10 fold.

The target in the next experiment is T2, human claudin 18 isoform 1 (claudin 18.1) (human, UniProt P56856 1-261).
T2 construct: Recombinant on transfected CHO cells (CHO-CLDN18.1); also called CLDN18.1
T2 sequence (P56856 whole entry, canonical isoform): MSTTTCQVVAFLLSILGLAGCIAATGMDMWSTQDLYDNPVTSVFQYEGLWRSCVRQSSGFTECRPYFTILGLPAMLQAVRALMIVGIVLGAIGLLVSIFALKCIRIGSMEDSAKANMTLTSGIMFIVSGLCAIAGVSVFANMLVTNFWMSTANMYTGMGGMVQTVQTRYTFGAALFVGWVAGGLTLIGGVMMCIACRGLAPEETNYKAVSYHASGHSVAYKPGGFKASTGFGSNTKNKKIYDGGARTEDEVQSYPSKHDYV
In words: immunofluorescence imaging on CHO cells expressing human CLDN18.1, antibody at 10 µg/ml. On the procedure: as §1
As for B2, the binding result was “no binding (tested: 10 µg/ml)”.
The same measure, in the same setting: the same measure for B3: “no binding (tested: 10 µg/ml)”; for B4: “no binding (tested: 10 µg/ml)”.
Take B5: the binding result was “no binding (tested: 10 µg/ml)”.
The same measure, in the same setting: the same measure for B6: “no binding (tested: 10 µg/ml)”.
As to B7, the binding result is given as “no binding (tested: 10 µg/ml)”.
Consider B8, for which the binding result is given as “no binding (tested: 10 µg/ml)”.
Consider B9, for which the binding result is “no binding (tested: 10 µg/ml)”.
The same measure, in the same setting: the same measure for B10: “no binding (tested: 10 µg/ml)”; for B11: “no binding (tested: 10 µg/ml)”.

In another experiment the target is T1, human claudin 18 isoform 2 (claudin …). The experiment is described as follows: cell-based or functional assay. This is another data set of the same source.
On to B1, for which the “endocytosis derived cell toxicity EC50, CHO-18.2 cells (anti-IgG Fc-MMAF co-internalization)” value (from here on “endocytosis derived cell toxicity EC50”) is 1.51 nM.
In the case of B2, the “endocytosis derived cell toxicity EC50” value amounted to 3.09 nM.
For B3, the “endocytosis derived cell toxicity EC50” value was found to be 13.4 nM.

The target is the same in a further experiment. In words: imaging, PATU8988S cells (endogenous CLDN18.2); +++ = EC50 between 2 nM and 20 nM.
B4 gave an EC50 of 2 to 20 nM.
B5 displayed an EC50 of 2 to 20 nM.
As to B6, the concentration for a half-maximal effect (EC50) fell in the range of 2 to 20 nM.
The molecule B7 gave an EC50 of 2 to 20 nM.
For the molecule B8, the EC50 was in the range of 2 to 20 nM.
As to B9, the EC50 is 2 to 20 nM.
The molecule B10 showed an EC50 of 2 to 20 nM.
Molecule B11 had an EC50 of 2 to 20 nM.
B12 returned an EC50 of 2 to 20 nM.
B13 gave an EC50 of 2 to 20 nM.

The target is the same in the next experiment. In words: cell-based or functional assay. The source holds these as a separate data set.
Regarding B1, the “ADCC EC50, CHO-18.2 target cells (mouse FcγRIV reporter bioluminescence)” value (“ADCC EC50, CHO-18.2 target cells” for short) was 1.51 nM.
For the molecule B2, the “ADCC EC50, CHO-18.2 target cells” value is 3.09 nM.
In the case of B3, the “ADCC EC50, CHO-18.2 target cells” value amounted to 7.09 nM.

A further experiment has as its target T2, human claudin 18 isoform 1 (claudin …). In words: imaging, CHO-CLDN18.1 cells, single concentration (FIG. 3A). On the procedure: as §1
On to B12, for which the binding result is “no binding (tested: 10 µg/ml)”.
Regarding B13, the binding result is listed as “no binding (tested: 10 µg/ml)”.

The target in a further experiment is T1, human claudin 18 isoform 2 (claudin …). In words: cell-based or functional assay. The source holds these as a separate data set.
With B4, the “endocytosis derived cell toxicity EC50” value is 1.43 nM.
Regarding B5, the “endocytosis derived cell toxicity EC50” value was found to be 0.96 nM.
Consider B6, for which the “endocytosis derived cell toxicity EC50” value was 1.26 nM.
Consider B7, for which the “endocytosis derived cell toxicity EC50” value is 1.07 nM.
For the molecule B8, the “endocytosis derived cell toxicity EC50” value worked out at 1.09 nM.
For the molecule B9, the “endocytosis derived cell toxicity EC50” value was determined as 1.14 nM.
Regarding B10, the “endocytosis derived cell toxicity EC50” value was 1.12 nM.
Turning to B11, the “endocytosis derived cell toxicity EC50” value is 1.08 nM.
Consider B12, for which the “endocytosis derived cell toxicity EC50” value turned out to be 0.71 nM.
B13: the “endocytosis derived cell toxicity EC50” value turned out to be 1.15 nM.

The values are drawn from patent publication US20230067757A1 (NOVAROCK BIOTHERAPEUTICS, published 2023).
